Assay [1] concerns the target SARS-CoV-2 Omicron BA.1 Spike (14-1209, S2P) (SARS-CoV-2) (UniProt P0DTC2). Description: cryo-EM structure.
Assay [2] has as its target SARS-CoV-2 Delta Spike (14-1209, S2P) (SARS-CoV-2) (UniProt P0DTC2). Kind of assay: cryo-EM structure.

In assay [1], “SARS-CoV-2 Omicron BA.1 Spike (14-1209, S2P) (from UniProt P0DTC2 14-1209) (natural protein)” registered a stoichiometry N of 3.
“SARS-CoV-2 Delta Spike (14-1209, S2P) (from UniProt P0DTC2 14-1209) (natural protein)” showed a stoichiometry N in assay [2] of 3.

The values are drawn from PMC9852238.
